No end group written: not given here.
T1: human secretagogin (human, UniProt O76038 1-276)
T1 construct: human secretagogin; construct in Dataset S1; Construct limits are in Dataset S1; also called recombinant human secretagogin; source: recombinant; coexpressed and copurified with the GFP fusion, or purified
T1 sequence (looked up): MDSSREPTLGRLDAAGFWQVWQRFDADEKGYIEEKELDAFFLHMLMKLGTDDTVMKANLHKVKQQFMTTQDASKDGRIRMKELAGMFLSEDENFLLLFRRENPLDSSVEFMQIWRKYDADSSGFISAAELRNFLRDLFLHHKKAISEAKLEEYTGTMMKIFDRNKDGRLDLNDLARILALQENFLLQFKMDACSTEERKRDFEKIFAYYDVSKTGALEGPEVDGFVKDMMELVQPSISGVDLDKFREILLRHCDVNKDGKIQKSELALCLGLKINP

B1: mouse secretagogin (natural protein, UniProt Q91WD9 1-276, looked up)
chain: MDNARRKTPARLDAACFWQIWQRFDKEEKGYIRETELDAFFDHLLAKSGTEDTLMEENVQKVKEQLMTSHNVSKEGRILMKELASMFLSEDENFLLFFRLETPLDNSVEFMQIWRKYDADSSGFISAAELCNFLRDLFLHHKKNISEAELEEYTSTMMKIFDKNKDGRLDLNDLARILALQENFLLQFKMDASSTEERKRDFEKIFAHYDVSKTGALEGPEVDGFVKDMMELVQPSISGVDLDKFREILLRHCDVNKDGKIQKSELALCLGLKINP
notes: mouse secretagogin, the three-domain protein (domains A, B, C); construct in Dataset S1; also called mSCGN; SCGN; source: recombinant, produced and purified; E. coli BL21(DE3) named for the pull-down constructs
B2: Habc domain of mouse syntaxin-4 (domain or fragment, UniProt P70452 32-170, looked up)
chain: ARLGSPDDEFFQKVQTIRQTMAKLESKVRELEKQQVTILATPLPEESMKQGLQNLREEIKQLGREVRAQLKAIEPQKEEADENYNSVNTRMKKTQHGVLSQQFVELINKCNSMQSEYREKNVERIRRQLKITNAGMVSD
notes: mouse syntaxin-4, globular Habc domain; limits in Dataset S1; The His6 tag is told for the pull-down baits; a Habc with the N-peptide is m36; also called Habc module of syntaxin-4; syntaxin-4-derived Habc module; source: recombinant, produced and purified; E. coli BL21(DE3) named for the pull-down constructs

Legend:
human secretagogin = target: T1, human secretagogin; assay: co-expression and co-purification + SEC; GFP-peptide fusion coexpressed with human secretagogin; in the presence of Ca2+; settings: partners not purified
[1] = target: T2, C-terminal SNARE domain of mouse SNAP-25 (mouse, UniProt P60879 140-206); assay: ITC; in the presence of Ca2+; settings: both partners purified
T2 construct: mouse SNAP-25, C-terminal SNARE domain (helix), identical in SNAP25-1 and SNAP25-2; limits in Dataset S1; The pull-down fragments are said to derive from isoform-2; also called SNAP-25c; SNAP-25C; source: recombinant; E. coli BL21(DE3) named for the pull-down constructs

[2] = target: B2; assay: ITC; in the presence of Ca2+; settings: both partners purified
mouse secretagogin [3] = target: B1; assay: ITC; GFP-fusion peptides of the syntaxin-4 Hb helix; the sentence names no method, the values are said to stand in SI Fig. S3E and SI Table S1 (ITC data); settings: both partners purified
mouse secretagogin [4] = target: B1; assay: ITC; in the presence of Ca2+; settings: both partners purified

T2 sequence (P60879 140-206): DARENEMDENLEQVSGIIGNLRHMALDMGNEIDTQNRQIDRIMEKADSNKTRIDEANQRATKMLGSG

Kd (mouse secretagogin [3])	Kd (mouse secretagogin [4])	Binder	also measured
		GIIGNLRHMALDMGNEIDTQNRQID (SNAP-25 stretch 155-179 (mouse and human identical), attached to the C-terminus of GFP; GFP serves as crystallization chaperon; also called GFP-SNAP-25c chimera; GFP-linked SNAP-25-peptide; source: coexpressed and copurified with secretagogin; not shown: GFP, N-terminal, kept) [GFP carrying the SNAP-25-derived peptide (AA155-179) at its C-terminus]	binding result (human secretagogin): binds
		B1	stoichiometry N [1]: 1; stoichiometry N [2]: 1
275 nM		TPLPEESMKQGLQNLREEIKQLGREVRAQLKAIEPQKE (also: fused as C-terminal tag to GFP, mouse syntaxin-4, stretch of the Hb helix, C-terminal tag on GFP; source: recombinant GFP fusion; not shown: GFP, N-terminal, kept) [GFPmSTX4Hb7]	
	~7000 nM	ARLGSPDDEFFQKVQTIRQTMAKLESKVRELEKQQVTILATPLPEESMK (domain or fragment, UniProt P70452 32-80, looked up, limits in Dataset S1; Used as bait in the pull-down; source: recombinant; E. coli BL21(DE3) named for the pull-down constructs) [helix-a of the Habc domain of mouse syntaxin-4]	
826 nM		GLQNLREEIKQLGREVRAQLKAIEPQKE (also: fused as C-terminal tag to GFP, mouse syntaxin-4, stretch of the Hb helix, C-terminal tag on GFP; A linker stands between GFP and the peptide; also called GFP-syntaxin-4-peptide; chimeric GFP-syntaxin-4 (STX4)-derived peptide; source: recombinant GFP fusion; complex with secretagogin isolated by preparative SEC; not shown: GFP, N-terminal, kept) [GFPmSTX4Hb10]	
	~209 nM	TPLPEESMKQGLQNLREEIKQLGREVRAQLKAIEPQKE (domain or fragment, UniProt P70452 72-109, looked up, limits in Dataset S1; Used as bait in the pull-down; also called Hb; syntaxin-4 Hb; source: recombinant; E. coli BL21(DE3) named for the pull-down constructs) [helix-b of the Habc domain of mouse syntaxin-4]	
	~46.6 nM	GIIGNLRHMALDMGNEIDTQNRQID (mouse SNAP-25, stretch of the C-terminal helix; Tags of the deletion constructs are in Dataset S1; also called mSNAP-25^14−33; SNAP-25^14–33; source: recombinant deletion construct of SNAP-25c) [mouse SNAP-25 peptide 155-179]	
	~14000 nM	B2	
541 nM		ESMKQGLQNLREEIKQLGREVRAQLKAIEPQKE (also: fused as C-terminal tag to GFP, mouse syntaxin-4, stretch of the Hb helix, C-terminal tag on GFP; source: recombinant GFP fusion; not shown: GFP, N-terminal, kept) [GFPmSTX4Hb9]	
